US20060172941A1 (published 2006)

Biological target: VEGF receptor on endothelial cells
Experiment: inhibition of radiolabeled VEGF binding to its receptor on endothelial cells; peptide concentration varied

Sequence of VEGF receptor on endothelial cells (chain, as listed by the source): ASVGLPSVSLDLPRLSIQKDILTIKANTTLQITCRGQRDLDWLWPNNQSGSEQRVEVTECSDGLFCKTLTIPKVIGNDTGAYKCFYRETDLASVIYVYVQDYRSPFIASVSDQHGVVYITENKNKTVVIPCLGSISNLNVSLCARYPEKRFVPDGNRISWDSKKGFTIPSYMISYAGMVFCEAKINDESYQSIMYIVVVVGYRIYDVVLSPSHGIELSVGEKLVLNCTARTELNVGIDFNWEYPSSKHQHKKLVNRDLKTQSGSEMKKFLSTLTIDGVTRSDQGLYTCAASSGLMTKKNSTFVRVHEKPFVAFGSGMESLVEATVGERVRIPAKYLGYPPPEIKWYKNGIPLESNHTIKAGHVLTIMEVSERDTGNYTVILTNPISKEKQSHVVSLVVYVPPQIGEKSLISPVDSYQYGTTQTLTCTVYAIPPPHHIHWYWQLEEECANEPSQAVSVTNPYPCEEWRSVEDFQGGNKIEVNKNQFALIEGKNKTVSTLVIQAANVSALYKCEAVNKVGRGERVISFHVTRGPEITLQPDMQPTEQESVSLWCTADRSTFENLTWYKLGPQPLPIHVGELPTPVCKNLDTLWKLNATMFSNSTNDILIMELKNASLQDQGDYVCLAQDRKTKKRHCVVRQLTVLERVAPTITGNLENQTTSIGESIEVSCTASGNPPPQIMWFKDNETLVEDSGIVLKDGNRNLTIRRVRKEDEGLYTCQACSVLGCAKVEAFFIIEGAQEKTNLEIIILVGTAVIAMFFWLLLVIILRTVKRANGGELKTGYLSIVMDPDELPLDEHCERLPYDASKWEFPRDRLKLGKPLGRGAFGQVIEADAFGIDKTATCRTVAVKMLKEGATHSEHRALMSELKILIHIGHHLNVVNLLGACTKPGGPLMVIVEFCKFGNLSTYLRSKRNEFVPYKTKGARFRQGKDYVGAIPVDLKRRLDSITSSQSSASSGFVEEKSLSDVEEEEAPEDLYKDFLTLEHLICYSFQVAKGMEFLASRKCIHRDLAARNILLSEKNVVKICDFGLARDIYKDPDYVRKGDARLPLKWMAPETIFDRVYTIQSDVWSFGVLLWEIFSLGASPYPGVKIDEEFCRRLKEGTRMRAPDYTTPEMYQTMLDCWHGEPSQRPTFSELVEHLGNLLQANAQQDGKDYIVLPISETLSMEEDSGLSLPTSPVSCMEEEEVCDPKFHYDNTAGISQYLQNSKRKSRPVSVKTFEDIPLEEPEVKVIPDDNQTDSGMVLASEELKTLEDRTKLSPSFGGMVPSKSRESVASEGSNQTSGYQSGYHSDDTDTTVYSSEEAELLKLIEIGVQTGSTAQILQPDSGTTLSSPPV

| IC50 [µM] | Binder |
| --- | --- |
| 1.1 | PYAGRGDSVVYGLGGGPGAARGRRAARGRR [ST100,033] |
| 0.43 | YDGRGDSVVYGLKKKAARGRRAARGRR [ST100,032] |
